# In article PMC3299909 (Molecular Cell, 2012):
# B1: Exo84 (bone marrow-derived macrophages) (natural protein, UniProt Q6PGF7 1-716, looked up)
# chain: MSDSGASRLRRQLESGGFEARLYVKQLSQQSDGDRDLQEHRQRVQALAEETAQNLKRNVYQNYRQFIETAREISYLESEMYQLSHLLTEQKSSLESIPLALLPAAAAGASAGEDTAGAGPRERGAVQAGFLPGPAGVPREGSGTGEEGKQRTLTTLLEKVEGCRDLLETPGQYLVYNGDLVEYDADHMAQLQRVHGFLMNDCLLVATWLPQRRGMYRYNALYPLDRLAVVNVKDNPPMKDMFKLLMFPESRIFQAENAKIKREWLEVLEETKRALSDKRRREQEEAAAPRAPPPVTSKGSNPFEDEDDEELATPEAEEEKVDLSMEWIQELPEDLDVCIAQRDFEGAVDLLDKLNHYLEDKPSPPPVKELRAKVDERVRQLTEVLVFELSPDRSLRGGPKATRRAVSQLIRLGQCTKACELFLRNRAAAVHTAIRQLRIEGATLLYIHKLCHVFFTSLLETAREFETDFAGTDSGCYSAFVVWARSAMGMFVDAFSKQVFDSKESLSTAAECVKVAKEHCQQLGEIGLDLTFIIHALLVKDIQGALHSYKEIIIEATKHRNSEEMWRRMNLMTPEALGKLKEEMKSCGVSNFEQYTGDDCWVNLSYTVVAFTKQTMGFLEEALKLYFPELHMVLLESLVEIILVAVQHVDYSLRCEQDPEKKAFIRQNASFLYETVLPVVERRFEEGVGKPAKQLQDLRNASRLLRVNPESTTSVV
# Target: Sec5 (bone marrow-derived macrophages) (mouse (endogenous in bone …, UniProt Q9D4H1 1-924))
# Experiment: co-IP
# Chain of Sec5 (bone marrow-derived macrophages) (mouse (Q9D4H1 whole entry): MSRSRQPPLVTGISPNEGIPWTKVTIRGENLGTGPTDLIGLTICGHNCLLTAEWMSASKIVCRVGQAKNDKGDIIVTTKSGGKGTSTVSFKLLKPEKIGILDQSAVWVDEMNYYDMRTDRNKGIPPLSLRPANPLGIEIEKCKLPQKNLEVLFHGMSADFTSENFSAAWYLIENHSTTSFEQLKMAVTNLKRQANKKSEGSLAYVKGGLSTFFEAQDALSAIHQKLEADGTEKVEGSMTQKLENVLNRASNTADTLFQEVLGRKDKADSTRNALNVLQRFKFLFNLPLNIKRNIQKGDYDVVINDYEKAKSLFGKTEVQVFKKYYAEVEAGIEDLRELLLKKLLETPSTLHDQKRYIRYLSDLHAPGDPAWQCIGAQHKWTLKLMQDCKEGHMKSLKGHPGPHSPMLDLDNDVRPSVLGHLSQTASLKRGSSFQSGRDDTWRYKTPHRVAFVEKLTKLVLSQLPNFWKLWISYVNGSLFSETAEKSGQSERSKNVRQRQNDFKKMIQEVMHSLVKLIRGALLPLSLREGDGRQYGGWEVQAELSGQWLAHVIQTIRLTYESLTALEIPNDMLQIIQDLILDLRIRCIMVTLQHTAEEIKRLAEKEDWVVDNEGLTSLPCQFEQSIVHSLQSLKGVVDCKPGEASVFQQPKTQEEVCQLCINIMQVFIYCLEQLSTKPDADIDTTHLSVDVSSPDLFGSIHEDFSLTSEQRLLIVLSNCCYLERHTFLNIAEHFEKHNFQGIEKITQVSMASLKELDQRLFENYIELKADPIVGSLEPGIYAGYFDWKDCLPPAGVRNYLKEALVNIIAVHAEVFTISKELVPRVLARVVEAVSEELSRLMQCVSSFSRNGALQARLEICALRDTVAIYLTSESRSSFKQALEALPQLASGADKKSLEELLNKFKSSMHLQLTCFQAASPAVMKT
binder,measurement,value
B1,fold increase of the association in Tipe2-/- cells over wild type cells,~3 fold
